Numbering of substitutions follows the chain as printed. Where two headings read alike, the source gives them in different places.
Tests used:
Experiment in all cases: smFRET
GAF-DBD (GAF-ZnF, Cy3) [1] = molecular target: T1, GAF-DBD (GAF-ZnF, Cy3) (Drosophila melanogaster, UniProt Q08605)
T1 sequence: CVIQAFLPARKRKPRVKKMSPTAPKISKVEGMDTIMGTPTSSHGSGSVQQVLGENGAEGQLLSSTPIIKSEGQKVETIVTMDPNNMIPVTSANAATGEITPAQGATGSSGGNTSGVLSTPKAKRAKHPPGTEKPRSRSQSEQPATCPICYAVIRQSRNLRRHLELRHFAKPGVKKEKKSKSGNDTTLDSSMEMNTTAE

GAF-DBD (GAF-ZnF, Cy3) [2] = molecular target: T1, GAF-DBD (GAF-ZnF, Cy3); remark: listed apart in the source
GAF-DBD (GAF-ZnF, Cy3) [3] = molecular target: T1, GAF-DBD (GAF-ZnF, Cy3); remark: listed apart in the source
GAF-DBD (GAF-ZnF, Cy3) [4] = molecular target: T1, GAF-DBD (GAF-ZnF, Cy3); remark: listed apart in the source

B1: Cognate-Motif Cy5-DNA (90 bp) (dsDNA)
DNA 1: GTTTTGTGAGTACGCGCTGTTGTACTATTGTTAACCCACAAGGTCGCACAGTAAACGGCACACTGTACGTGTTGCTTCGAGAGAGCGCGC
DNA 2: GCGCGCTCTCTCGAAGCAACACGTACAGTGTGCCGTTTACTGTGCGACCTTGTGGGTTAACAATAGTACAACAGCGCGTACTCACAAAAC
modifications: internal backbone Cy5 in strand 2
- binding result (GAF-DBD (GAF-ZnF, Cy3) [1]): binds

B2: hsp70 tandem Cy5/Cy7 DNA (187 bp) (dsDNA)
DNA 1: TCATTTGTTTGGCAGAAAGAAAACTCTCAAAATTTCGTTGGCCGTTATAGCATATTCGTTTTGTGAGAGAGGGAGAGAGTACTATTGTTAACCCACAAGGTCGCACAGTAAACGGCACACTGTACGTGTTGCTTCGAGAGAGCGCGCCACCTGGTGTCGCGAAAAGAGCGCCGGAGTATAAATAGAG
DNA 2: CTCTATTTATACTCCGGCGCTCTTTTCGCGACACCAGGTGGCGCGCTCTCTCGAAGCAACACGTACAGTGTGCCGTTTACTGTGCGACCTTGTGGGTTAACAATAGTACTCTCTCCCTCTCTCACAAAACGAATATGCTATAACGGCCAACGAAATTTTGAGAGTTTTCTTTCTGCCAAACAAATGA
modifications: amino-C6-T coupled dyes
- binding result (GAF-DBD (GAF-ZnF, Cy3) [2]): binds

B3: hsp70 flipped Cy5/Cy7 DNA (187 bp) (dsDNA)
DNA 1: TCATTTGTTTGGCAGAAAGAAAACTCTCAAAATTTCGTTGGCCGTTATAGCATATTCGTTTTGTGACTCTCCCTCTCTGTACTATTGTTAACCCACAAGGTCGCACAGTAAACGGCACACTGTACGTGTTGCTTCGAGAGAGCGCGCCACCTGGTGTCGCGAAAAGAGCGCCGGAGTATAAATAGAG
DNA 2: CTCTATTTATACTCCGGCGCTCTTTTCGCGACACCAGGTGGCGCGCTCTCTCGAAGCAACACGTACAGTGTGCCGTTTACTGTGCGACCTTGTGGGTTAACAATAGTACAGAGAGGGAGAGTCACAAAACGAATATGCTATAACGGCCAACGAAATTTTGAGAGTTTTCTTTCTGCCAAACAAATGA
modifications: amino-C6-T coupled dyes
- binding result (GAF-DBD (GAF-ZnF, Cy3) [3]): binds

B4: hsp70 Site 2 Only Cy5/Cy7 DNA (dsDNA)
DNA 1: B2 DNA 1 with G65C, A66C, G67A, A68G, G69C, G71C, G72T, A74T, G75A, G77T
DNA 2: B2 DNA 2 with C111A, C113T, T114A, C116A, C117G, C119G, T120C, C121T, T122G, C123G
modifications: amino-C6-T coupled dyes
- binding result (GAF-DBD (GAF-ZnF, Cy3) [4]): binds
